# From the supplement of paper PMC12636428
# System: Saccharomyces cerevisiae
# Assay: transcriptional activation domain activity (GFP:mCherry ratio, weighted mean of sorted bins, harmonized to initial dataset scale) (arbitrary fluorescence ratio units); higher = stronger transcriptional activation
# Details: beta-estradiol 1 µM; induction time 4 h
# Method in brief: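 Values are activation activity, found as the read-weighted mean of bin median fluorescence, averaged across barcodes and then mapped linearly onto the initial dataset scale. Barcoded protein tiles fused to an estradiol-inducible synthetic transcription factor were integrated at the URA3 locus of GFP-reporter yeast diploids. Cells were induced for 4 hours at 30 °C with 1 uM beta-estradiol in SC, sorted into 8 bins by GFP:mCherry ratio, and barcode-sequenced, with tiles under 50 reads discarded.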
row,Sequence,transcriptional activation domain activity
1,AVPAEGAKPEETPAAAPAETTEAAKTEESKPEAPAASEPAKTEPAAPAAAPAA,< 6570
2,MMFCLRSFIPLLLLPLPPSLSPLHLVLLLFLTYILNRPCIYCSFLLLILFVSS,60600
3,AFHKLQLERGWTGAKMVMHLLKVYFSWQYGHHCTVYRPIFMRDMALGGPYFSQ,55200
4,RDAEKGKEKRRSRSKNRDEKMEHAEEATGGEPSREHKADSGKKSRRSSIKKSS,29500
5,LEMLSYGAGVHHAINILFTDGIFWVWYYDRQGILQSKGVSIFKDLPRFLLLLF,52200
6,FPILLRFIFTHFRMLFSCQLFCLMGFRVECLDFDPGSFILFHLTFLWLPFVLF,53300
7,AFLLPFANHHRFVSYCLYVFGFIFFVFSLEKGYYKQQFTQFCVTHMCLLLVVF,39800
8,ALLCLCWAPEPRGLLALGIGCLVFLFLYFYPCCFFFFFFYSYLCFCTVVLFFP,53300
9,STTSDGAPGSEVPLKRRPGRPKGSKTKKRKIDTAPVPIAAAGTQPAASSTTAP,35700
10,MGDCIKVHVSFHCRFLVFIYTHTFFLFLFYSSSIVFCFIYIYIFPFISFFWGL,36000
11,EWMKVVYGFDQKPIPSGACSGSIAKIFGTNTSAFELLVLKRRIMGPCWIQIKK,55800
12,AGEKADAPNGEGAGEGNRRRPSGRGRGRGRGGRGARNGRDGAQEEGAEAAAAP,14300
13,KKKSSGRKSGSKGVGRLGSGSEETDEDESSRGSGSEAGRSSKDKKGKSRSNVE,39900
14,MLLNVFFFFPSSILGSFLYTDLFYFGFFSLIMLFPFKLPCIQPTFFFFTPSFI,44500
15,PELVPLDLKNPELDSSFDLNMNLDLNLNLDSNFNIALNRSDSSGSTMNLDYKL,101000
16,MHAFQAGRDMPLVRRRSGGCLESDGGGEERVLRCETEECMSKEGVVSVGAGAD,35500
17,SASSRESSASASHSASKSESSAAASRTSSAPATQSTGAAVANRAGVVGAVAGG,57700
18,GSFVGFLFCFVDFGFWILEFSFFFSWMPAGVLSFWMVASQWGKADDIFFSLFF,50600
19,KESRKERHHDSDRRHKRRHRSREGGEGRDRDRDHRRHHRHGRDRSRSRERKLG,67400
20,LFFIAVSQLGFVCSYLVFISGNLVNVVDVLSSCAAHLDQKYYIWIPLILVLPL,59900
21,PASPPIDRMERLHIRRTSPSPQGNYDEIRIDRARRISSSPPRRYEEVRVRHVS,26700

row,Sequence,transcriptional activation domain activity
1,MFLCLQFRYLFCCGLKHWLRWGDALCLRVLMQGRCCWCGKRKFMLSVSILSWR,53600
2,MNLYLLCRYMTLVYCFVYMLGNNITKFDCEVWVKALLSFGYIASILSSSLIVL,61200
3,QTWGVYKRTGGINMYIVSIWVNWFANSIIGILSWLYLWGTIETSFWFFFFLLL,75500
4,LYFLLLLSPLCIGLVSVLCCHIGFIFLFLFFLLQSYQVSYLLLFMYIRFFLCM,42300
5,LLFFFSFFFVCFKYFPPFFFSSFLSFSFYCLSILTYPIHYPPPVFGISGSFFV,51800
6,RTLLVVLISMLYFLTVEMFLPVFYLFDESLYNFLSWILTAFWSRLALWVLGFY,56000
7,GYCLKIRDRFFIFLWHCWVRGIVVTPFGSKIISGLSFESIPQSSCVLIQNVTI,28400
8,RAKNRAKEEESAAQQKQAQHQQHQQHQQHRQGEEAGSAGRAEAAAAAAAAGAD,26200
9,RSMLFPKPSGFKFYRDSFRYISVMACVAMLGFIATFINFIRLGIAWHLIIVRA,54400
10,EKKRKRTEEEDAPKLKKKKTKSDLKRDSGGSSQEDSEAPAKKKKSSKSKKAKK,35800
11,LLECREDYINNNIRYCDDNKILLKSMIQMFVDLIPFSDKFLGLIFHIVPSFMH,44700
12,KILNCLSIRLYLCRKGFGSLPNEQLALFNFNARECLRALGVTLFKPRLYRLCY,80900
13,MADRGTGAGGEGRGRGGFGRGGRGRGGPRGRGGRGGRGGRKDEEKEWVPVTKL,24800
14,RVRAAERAGQQAGREGRRGRQRGEHARRGGRAAHERAAQAHHRAPVPVPVRVP,62200
15,KYEEQEDKDEEEEEKEEEEEEEEEEEEEEEGKRGEGKKATAKRRSKGSAYGGK,17300
16,YVILVAVSIFTTTYVMLTSLPVLFQQCPFQTPLSSIIWYLGHFLVIAFLSLFS,62600
17,PFCMVNAKTVTLRMIESIHKLRRVLVRSEDEIIRLISPVSAKVLCTCLPLFEM,60400
18,RILATQFFYVAAFTFLVFHSAFRAARITLPLYQHPLRIAIPVTLTQMGLHATA,64600
19,CEPLRKATRGLVTTVVNGNDVVPSLSIGVVRDFHSVALSFKEDTGGVLGEVRK,39100
20,MIHSIAVYIMLISSTLTHSLISLLFYILSLYVGIFYTYHILFKVLFICQWFLF,76200
21,NRRDASPEPHHKGKGKGKKNNRREAEADAEIEVREPHHKGKGKGKKNNAREAE,21700

row,Sequence,transcriptional activation domain activity
1,PRLFPIASHLFFSLPHAKCCYPYLLLLLFPLLPLPFSLLVFCNLIFFFFFLFF,41300
2,RFGGSARGGGTGVEPPAKGKKGGGEEREGGEGRKGKGGRGPGTRERKGKERER,< 6570
3,MVLQNSMIVIFCHSFDIVWSVFLIGHYCILFYRYLIFCYVCVSFNWTFYLYIF,58700
4,KDKNKEKERGKHKHRRRERDGDGDGDEEDGRSSKKHKKERGQKRSEKEGGGED,42100
5,TIALMGQDSIYLQVLAGDPNEAQSKNARRVYRLLKRGKHWVLVTLLLSNVIVN,27400
6,MVLLCAYERGLGLDIGVSGFVSFFSFLTLFFFFPIYLFFSLLYFLCVCLLCCA,49700
7,ETAKIDIEKQSNGETDISVLRNHAPGTAPTEEENLEKNMAPLRKLIRLLLLNT,39100
8,FGFFSFSSFFFFLVLLYLFSFFFFLDFLSFSFLFPDIHSRIVINHNLVGNFFF,44600
9,RIVRLSFAYTSFIVLPWQQLSEFRGQAYTVGACLEALRLMPNLLRCAFAAYEL,53600
10,VLRLFNDVWAVTLTQLSILALVGVYLILPYYNVLQCCLIRQDVVLLYLPAFLV,66500
11,QRIIIGSKLILLTRSLLICLLWSLKMAVLDLLAKLMLNMPFERKLIYTLWAIL,41600
12,LALIRGGSHVGQVTFDRHSIASEGVVWCLAVKFKGVTLNLSWSEAVYRWFHVL,57300
13,MMKTLAQMYPLASFSLFQGLKFFILLALMNECLLLCTALRRWLICTQLPGIYF,49200
14,KHYRRRLLQRDILKRKRWSIGLKTLVLLRDLGVFVHHHTVVKALQMQFIVLFG,57200
15,FLMVLCLFCIVYLFFSCFPFFAMSYVLLLLFCFYCILFYFSCPFCFVICNSVV,54000
16,GWFYFNVLRHAELMVFTIFSPEHVTIWALRQHSVARLIRALCPEKLSMSHGFL,32400
17,AHYLNHNPHQPSMGFDQALGLKLSPSSSGLLSTNESNAIEQFLDNLISQDMMS,110000
18,KSDVEADRQRLIYSGKVLKDDDILSSCKIQSGHTVHMVKGAARAAAASSSSAP,58300
19,APKDESEAPKPAEEDSPSKRKKAEEVKIEKKEETPARPEPQHTQPKQPAAKAK,10100
